Kd data for 1 substance are collected here from patent US20260034246A1.

The target of assay [1] is Cyno Complement C5 Protein (cynomolgous macaque).
For assay [2], the target named is Human Complement C5 Protein (human) (UniProt P01031).
Assay [3] addresses Mouse Complement C5 Protein (mouse) (UniProt P06684).

Turning to “recombinant C5 inhibitor (C5I) protein (from UniProt Q5YD59 19-168)”, the Kd in assay [1] came to 5.09 nM; in assay [2] it was 10.2 nM; in assay [3] it was 6.28 nM.
